Experiment: yeast display, Sf9 membrane polyspecificity reagent, FACS + sequencing; frameworks hold sequencing errors
In short: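 A nanobody's polyreactivity label depends on the gate it was sorted from. Yeast display cells were stained with 10% biotinylated, detergent-solubilized Sf9 membrane reagent for 1 hour at 4 °C, enriched on streptavidin microbeads and sorted by FACS. The low and high (top ~1%) gates were set on anti-HA fluorescence for expression and streptavidin fluorescence for reagent binding.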

QVQLVESGGGLVQAGGSLRLSCAASGFIFGDYAMGWYRQAPGTERELVAAIFSGGSTYYADSVKGRFTISRDNAKNTVYLQMNSLKPEDTAVYYCAARFARYDWSMYYWGQGTQVTVSS
polyreactivity (PSR sort gate): low polyreactivity

QVQLVESGGGLVQAGGSLRLSCAASGFIFGDYVMGRYRQAPGKEREVVAAITRRGGRTNYADSVKGRFTISRDNAKNTVFLQMNSLIPEDNAVFYCNAQSGVVADDYWGQGSQVTVSS
polyreactivity (PSR sort gate): high polyreactivity

QVQLVESGGGLVQAGGSLRLSCAASGFIFGEYAMGWYRQAPGKERELVAAITWSGGSTSYADSVKGRFTSSRDNAKNTVYLQMNSLKPEDTAVYYCSARWHVYWGGFYYWGQVTQVTVSS
polyreactivity (PSR sort gate): high polyreactivity

QVQLVESGGGLVQAGGSLRLSCAASGFIFGFYAMGWYRQAPGKERELVAAITSDGGTYYADSVKGRFTISRDNAKNTVYLQMNSLKPEDTAVYYCAARPPYTDSSPGERTYDYWGQGTQVTVSS
polyreactivity (PSR sort gate): low polyreactivity

QVQLVESGGGLVQAGGSLRLSCAASGFIFGFYAMGWYRQAPWKERELVAAITSDGGTYYADSVKGRFTISRDNAKNTVYLQMNSLKPEDTAVYYCAADVLYEVFSWYVGYDYWGQGTQVTVSS
polyreactivity (PSR sort gate): low polyreactivity

QVQLVESGGGLVQAGGSLRLSCAASGFIFGGNAMGWYRQAPGKERELVAAISSGGRTYYADSVKGRFTISRDNAKNTVYLQMNSLKPEDTAVYYCNAAEQKYSIYYAFDTGPYDYWGQGTQVTVSS
polyreactivity (PSR sort gate): low polyreactivity

QVQLVESGGGLVQAGGSLRLSCAASGFIFGGYALGWYRQAPGKERELVAAISWSGDNTYYADSVKGRFTISRDNAKNTVYLQMNSLKPEDTAVYYCAADSYGQEYDYWGQGTQVTVSS
polyreactivity (PSR sort gate): low polyreactivity

QVQLVESGGGLVQAGGSLRLSCAASGFIFGGYAMGWYRQAPGKERELVAAITRGGSTDYADSVKGRFTISRDNAKNTVYLQMNSLKPEDTAVYYCAKKTPGWGKFDYWGQGTQVTVSS
polyreactivity (PSR sort gate): low polyreactivity

QVQLVESGGGLVQAGGSLRLSCAASGFIFGHNTMGWYRPAPGKERELVAAIDGGGGTSYADSVKGRFTISRDNAKNTVYLQMNSLKPEDTAVYYCAAYVAKGPLEYYYHYPYDYWGQGTQVTVSS
polyreactivity (PSR sort gate): low polyreactivity

QVQLVESGGGLVQAGGSLRLSCAASGFIFGHYAMGWYRQAPGKERELVAAITRGGRTNYADSVKGRFTISRDNAKNTVYLQMNSLKPEDTAVYYCNALGKALYRSRFYYWGQGTQVTVSS
polyreactivity (PSR sort gate): high polyreactivity

QVQLVESGGGLVQAGGSLRLSCAASGFIFGINAMGWYRQAPWKERELVAAISTGDRTNYADSVKGRFTISRDNAKNTVYLQMNSLKPEDTAVYYCAKDWRRNRPYEWTYDYWGQGTQVTVSS
polyreactivity (PSR sort gate): low polyreactivity

QVQLVESGGGLVQAGGSLRLSCAASGFIFGKNALGWYRQAPGKERELVAVISWRGSSTYYADSVKGRFTISRDNAKNTVYLQMNSLKPEDTAVYYCAARYPARGTLYYWGQGTQVTVSS
polyreactivity (PSR sort gate): low polyreactivity

QVQLVESGGGLVQAGGSLRLSCAASGFIFGLNAMGWYRQPPGKERELVAVISGRGRTYYADSVKGRFTISRDNAKNTVYLQMNSLKPEDTAVYYCNAVSSYGYDYWGQGTQVTVSS
polyreactivity (PSR sort gate): high polyreactivity

QVQLVESGGGLVQAGGSLRLSCAASGFIFGNYVMGWYRQAPGKERELVAAITNGGGNTYYADSVKGRFTISRDNAKNTVYLQMNSLKPEDTAVYYCHPLRYYYWGQGTQVTVSS
polyreactivity (PSR sort gate): high polyreactivity

QVQLVESGGGLVQAGGSLRLSCAASGFIFGQYAMGWYRQAPGKERELVAAISWSGGRTNYADSVKGRFTISRDNAKYTVYLQMNSLKPEDTAVSYCAARKGKYPQYTYGYWGQGTQVSVSS
polyreactivity (PSR sort gate): high polyreactivity

QVQLVESGGGLVQAGGSLRLSCAASGFIFGRNAMGWYRQAPGKERELVAVISKRSGNTYYADSVKGRFTISRDNAKNTVYLQMNSLKPEDTAVYYCNAVDQKLLRYDYWGQGTQVTVSS
polyreactivity (PSR sort gate): high polyreactivity

QVQLVESGGGLVQAGGSLRLSCAASGFIFGRNVMGWYRQAPGKERELVASISRSGGRTTYADSVKGRFTISRDNAKNTVYLLMNSLKPEDTAVYYCAKGQYQWERYVSHADYDWGQVTQVTVSS
polyreactivity (PSR sort gate): high polyreactivity

QVQLVESGGGLVQAGGSLRLSCAASGFIFGRYAMGWYRQAPGKERELVAAISRSGGSTHYADSVKGRFTISRDNAKNTVYLQMNSLKQVDTAVYYCNTYLTIWGYFYGYDYWGQGTQVTVSS
polyreactivity (PSR sort gate): high polyreactivity

QVQLVESGGGLVQAGGSLRLSCAASGFIFGRYARGWYRQAPVKERELVAAINWSGGSTYYADSVKGRFTISRDNAKNTVYLQMNSLKPEDTAVYYCAARTSRRDGGGSYDYWGQGTQVTVSS
polyreactivity (PSR sort gate): high polyreactivity

QVQLVESGGGLVQAGGSLRLSCAASGFIFGSNAMGWYRQAPGKERELVAAISRSGGSTYYADTVKGRFTISRDNAKNTVYLQMNSLKPEDTAVYYCNVDLWPFVYSWWSYDYWGQGTQVTVSS
polyreactivity (PSR sort gate): high polyreactivity

QVQLVESGGGLVQAGGSLRLSCAASGFIFGSNVMGWYRQAPGKERELVAAITSGSRTYYADSVKGRFTISRDNAKNTVYLQMNSLKPEDTAVYYCAKRNPIKYYGGGYWGQGTQVTVSS
polyreactivity (PSR sort gate): high polyreactivity

QVQLVESGGGLVQAGGSLRLSCAASGFIFGSYAMGWYRQAPGKERELVAAISDSGDSTYYADSVKGRYTISRDNAKNTVYLQMNSLKPEDTAVYYCNRGYRWRRCENYYWGQGTQVTVSS
polyreactivity (PSR sort gate): high polyreactivity

QVQLVESGGGLVQAGGSLRLSCAASGFIFGSYTMGWYRQAPGKERELVAAISSSVGRTYYADSVKGRFTISRDNAKNTVYLQMNSLKPEDTAVYYCAARRHGRVDYSQGSRESDYWGQGTQVTVSS
polyreactivity (PSR sort gate): high polyreactivity

QVQLVESGGGLVQAGGSLRLSCAASGFIFGTYAMGWYRQAPGKEWELVAAISSGGSTFYADSVKGRFTISRDNEKNTVYLQMYSLKPEDTAVYYCAKEGGTYRIFNYWGQGTQVTVSS
polyreactivity (PSR sort gate): low polyreactivity

QVQLVESGGGLVQAGGSLRLSCAASGFIFGVYAMGWYRQAPGKERELVAAITSSGTSTYYADSVKGRFTISRDNAKNTVYLQMNSLKPEDTAVYYCNKSGYIYHRKLWTPYYYWGQGTQGTVSS
polyreactivity (PSR sort gate): low polyreactivity

QVQLVESGGGLVQAGGSLRLSCAASGFIFGWYAMGWYRQAPGKERELVAAISRSGGSTYYADSVKGRFTISRDNAMNTVYLQMNCLKPEDTAVYYCAAQRSYAYEYWGQGTQVTVSS
polyreactivity (PSR sort gate): high polyreactivity

QVQLVESGGGLVQAGGSLRLSCAASGFIFGYNAMGWYRQAPGKERELVAAIDWSGTSTYYADSVKGRFTISRDNAKNTVYLQMNSLKPEDTAVYYCAADTSTWAHTRGYDYWGQGTQVTVSS
polyreactivity (PSR sort gate): high polyreactivity

QVQLVESGGGLVQAGGSLRLSCAASGFIFGYNGMGWYRQAPGKERELVAYADSVKGRFTISRDNAKNTVYLQMNSLKPEDTAVYFCAADRGYVWRYDYWGQGTQVTVSS
polyreactivity (PSR sort gate): low polyreactivity

QVQLVESGGGLVQAGGSLRLSCAASGFIFGYYAMGWYIPAPGKERELVAAISGSGGSTYYADSVKGRFTISRDNAKNTVYLQMNSLKPEDTAVYYCAAYGRAPGTSQRYDYRGQGTQVTVSS
polyreactivity (PSR sort gate): high polyreactivity

QVQLVESGGGLVQAGGSLRLSCAASGFIFGYYAMGWYRQAPGKERELVAAISFSGDRTYYADSVKGRFTISRDNAKNTVYLQMNSLKPEDTAVYYCNAKRWGDYTQYRYNYWGQGTQVTVSS
polyreactivity (PSR sort gate): high polyreactivity

QVQLVESGGGLVQAGGSLRLSCAASGFIFGYYAMGWYRQAPGKERELVAAISKSGGSTYYADSVKGRFTISRDNAKNTVYLQMNSLKPEDTAVYYCAARYTRPFGPFDYWGQGTQVTVSS
polyreactivity (PSR sort gate): low polyreactivity

QVQLVESGGGLVQAGGSLRLSCAASGFIFGYYTMGWYRQAPGKERELVASITRGGSTNYADSVKGRFTISRDNAKNTVYIQMNSLKPEDTAVYYCAKRYAQTYSVSRYYYWGQGTQVTVSS
polyreactivity (PSR sort gate): high polyreactivity

QVQLVESGGGLVQAGGSLRLSCAASGFIFGYYTMGWYRQAPGKERELVASITRGGSTNYADSVKGRFTISRDNAKYTVYLQMNSLNPEDTAVYYCAKRYAQTYSVSRYYYWGQGTQVTVSS
polyreactivity (PSR sort gate): high polyreactivity

QVQLVESGGGLVQAGGSLRLSCAASGFIFHFNAMGWYRQAPGKERELVAAISRTGGTTYYADSVKGRFTISRDNAKNTVYLQMNSLKPEVTAVYYCAAYSTYVQHYDYWGQGTQVTVSS
polyreactivity (PSR sort gate): high polyreactivity

QVQLVESGGGLVQAGGSLRLSCAASGFIFHLYGMAWYRQAPGKERELVAAISSGGRAYYADSVKGRFTISRDNAKNTVYLQMNSLKPEDTAVYDCAVYVAYLYSYYYWGQGTQVTVSS
polyreactivity (PSR sort gate): low polyreactivity

QVQLVESGGGLVQAGGSLRLSCAASGFIFHLYSLGWYRQAPGKERELVAVISGGGSTYYADSVKGRFTISRDNAKNTVYLQMNSLKPEDTAVYYCNVGRYYRYATGGDYWGQGTQVTVSS
polyreactivity (PSR sort gate): high polyreactivity

QVQLVESGGGLVQAGGSLRLSCAASGFIFHPYAMGWYRQAPGKERELVATITWSDDSTYYADSVKGRFTISRDNAKNTVYLQMNSLKPEDTAVYYCAARHKQHNRYDYWGQGTQVTVSS
polyreactivity (PSR sort gate): low polyreactivity

QVQLVESGGGLVQAGGSLRLSCAASGFIFHRYAMGWYRQAPGKERELVASITRSGGSTYYADSVKGRFTISRDNAKNTVYLQMISLKPEDTAVYYCAAQLPSYYKYPRHDYWGQGTQVTVSS
polyreactivity (PSR sort gate): high polyreactivity

QVQLVESGGGLVQAGGSLRLSCAASGFIFIFYAMGWYRQAPGKERELVAGISWSSSSTYYADSVKGRFTISRDNAKNTVYLQMNSLKPEDTAVYYCAKDGRSVSGEYDYWGQGTQVTVSS
polyreactivity (PSR sort gate): low polyreactivity

QVQLVESGGGLVQAGGSLRLSCAASGFIFITVNAMGWYRQAPGKEREFVAAITRSGTGTYYADSVKGRFTISRDNAKNTVYLQMNSLKPEDTAVYYCAAEWSEESDYWGQGTQVTVSS
polyreactivity (PSR sort gate): low polyreactivity

QVQLVESGGGLVQAGGSLRLSCAASGFIFITVNAMGWYRQAPGKEREFVAAITRSGTGTYYADSVKGRFTISRDNAKNTVYLQMNSLKPVDTAVYYCAADATSTGAYDYWGQGTQVTVSS
polyreactivity (PSR sort gate): low polyreactivity

QVQLVESGGGLVQAGGSLRLSCAASGFIFITYAMGWYRQAPGKEMELVAAITYSDGSTYYADSVKGRFTISRDNAKNTVYLQMNSLKPEDTAVYYCAADSSTFPADYYWGKGTQVTVSS
polyreactivity (PSR sort gate): low polyreactivity

QVQLVESGGGLVQAGGSLRLSCAASGFIFIVNAMGWYRQAPGKERELVATISSSGDITRYADSVKARFTISRDNAKNTVYLQMNSLKPEDTAVYYCAARLWTGYWGQGTQVTVSS
polyreactivity (PSR sort gate): high polyreactivity

From the nanobody polyreactivity screen of Harvey et al. (2022)
